The values below come from the supplement of paper PMC10567573.

B1: ZNF449 (parent)
chain: FQEYDTDCEVFRQRFRQFQYREAA
B2: RHOBTB3 (parent)
chain: DSCCPAGIFQAMCLLICAEMYQVS
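Note: lentivirally expressed fusions sorted by FACS into six bins by GFP to DsRed ratio, PSI derived from sequencing read proportions per bin multiplied by bin number.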

Variants of B1 are the subject of one series. Put plainly: protein stability index of a GFP-peptide fusion (GPS, HEK-293T) (PSI 1-6); higher = more stable. To be noted: c terminus: a fixed tail appended.
Consider FIEYDTDCEVFRQRFRQFQYREAA [Q2I], for which the protein stability index is 1.97.

For the variant FSEYDTDCEVFRQRFRQFQYREAA [Q2S], the protein stability index was found to be 3.32.

As for FLEYDTDCEVFRQRFRQFQYREAA [Q2L], the protein stability index turned out to be 2.33.

On to FWEYDTDCEVFRQRFRQFQYREAA [Q2W], for which the protein stability index was 2.67.

As to FYEYDTDCEVFRQRFRQFQYREAA [Q2Y], the protein stability index was found to be 2.5.

In the case of FVEYDTDCEVFRQRFRQFQYREAA [Q2V], the protein stability index is 1.68.

FKEYDTDCEVFRQRFRQFQYREAA [Q2K]: the protein stability index was found to be 2.96.

With FDEYDTDCEVFRQRFRQFQYREAA [Q2D], the protein stability index came to 3.19.

For FNEYDTDCEVFRQRFRQFQYREAA [Q2N], the protein stability index stood at 2.93.

Consider FCEYDTDCEVFRQRFRQFQYREAA [Q2C], for which the protein stability index came to 2.26.

In the case of FQEYSTDCEVFRQRFRQFQYREAA [D5S], the protein stability index stood at 2.28.

Turning to FQEYHTDCEVFRQRFRQFQYREAA [D5H], the protein stability index turned out to be 1.76.

Consider FQEYNTDCEVFRQRFRQFQYREAA [D5N], for which the protein stability index is 2.68.

In the case of FQEYATDCEVFRQRFRQFQYREAA [D5A], the protein stability index turned out to be 2.25.

As to FQEYYTDCEVFRQRFRQFQYREAA [D5Y], the protein stability index is 2.55.

Regarding FQEYLTDCEVFRQRFRQFQYREAA [D5L], the protein stability index came out at 2.5.

With FQEYTTDCEVFRQRFRQFQYREAA [D5T], the protein stability index is 1.35.

For the variant FQEYMTDCEVFRQRFRQFQYREAA [D5M], the protein stability index worked out at 2.05.

As to FQEYRTDCEVFRQRFRQFQYREAA [D5R], the protein stability index came out at 1.79.

On to FQEYFTDCEVFRQRFRQFQYREAA [D5F], for which the protein stability index worked out at 1.65.

FQEYKTDCEVFRQRFRQFQYREAA [D5K]: the protein stability index came out at 2.64.

With FQEYGTDCEVFRQRFRQFQYREAA [D5G], the protein stability index worked out at 1.78.

FQEYETDCEVFRQRFRQFQYREAA [D5E]: the protein stability index turned out to be 2.45.

FQEYWTDCEVFRQRFRQFQYREAA [D5W]: the protein stability index came out at 1.29.

As for FQEYQTDCEVFRQRFRQFQYREAA [D5Q], the protein stability index was determined as 1.57.

As to FQEYCTDCEVFRQRFRQFQYREAA [D5C], the protein stability index was 2.09.

With FQEYITDCEVFRQRFRQFQYREAA [D5I], the protein stability index came out at 1.42.

As for FQEYVTDCEVFRQRFRQFQYREAA [D5V], the protein stability index came out at 1.23.

On to FQRYDTDCEVFRQRFRQFQYREAA [E3R], for which the protein stability index came out at 2.54.

In the case of FQAYDTDCEVFRQRFRQFQYREAA [E3A], the protein stability index was 2.08.

Turning to FQYYDTDCEVFRQRFRQFQYREAA [E3Y], the protein stability index is 1.68.

Consider FQKYDTDCEVFRQRFRQFQYREAA [E3K], for which the protein stability index amounted to 2.03.

Turning to FQHYDTDCEVFRQRFRQFQYREAA [E3H], the protein stability index was 2.11.

Take FQNYDTDCEVFRQRFRQFQYREAA [E3N]: the protein stability index was 1.68.

For FQMYDTDCEVFRQRFRQFQYREAA [E3M], the protein stability index is 1.85.

FQFYDTDCEVFRQRFRQFQYREAA [E3F]: the protein stability index is 2.35.

For FQGYDTDCEVFRQRFRQFQYREAA [E3G], the protein stability index came out at 1.41.

Turning to FQWYDTDCEVFRQRFRQFQYREAA [E3W], the protein stability index was determined as 2.6.

For the variant FQPYDTDCEVFRQRFRQFQYREAA [E3P], the protein stability index came to 1.56.

As to FQVYDTDCEVFRQRFRQFQYREAA [E3V], the protein stability index was 2.31.

As for FQIYDTDCEVFRQRFRQFQYREAA [E3I], the protein stability index was determined as 1.91.

Consider FQCYDTDCEVFRQRFRQFQYREAA [E3C], for which the protein stability index was found to be 1.76.

As to FQSYDTDCEVFRQRFRQFQYREAA [E3S], the protein stability index was 2.15.

FQDYDTDCEVFRQRFRQFQYREAA [E3D]: the protein stability index was 2.24.

Turning to FQQYDTDCEVFRQRFRQFQYREAA [E3Q], the protein stability index came to 2.04.

As for FQLYDTDCEVFRQRFRQFQYREAA [E3L], the protein stability index amounted to 1.99.

On to FQEADTDCEVFRQRFRQFQYREAA [Y4A], for which the protein stability index worked out at 2.12.

FQEIDTDCEVFRQRFRQFQYREAA [Y4I]: the protein stability index came out at 2.42.

On to FQEDDTDCEVFRQRFRQFQYREAA [Y4D], for which the protein stability index is 3.03.

Consider FQECDTDCEVFRQRFRQFQYREAA [Y4C], for which the protein stability index was found to be 3.01.

As to FQETDTDCEVFRQRFRQFQYREAA [Y4T], the protein stability index was found to be 1.7.

As for FQEVDTDCEVFRQRFRQFQYREAA [Y4V], the protein stability index was 2.41.

FQEPDTDCEVFRQRFRQFQYREAA [Y4P]: the protein stability index was 2.28.

In the case of FQEEDTDCEVFRQRFRQFQYREAA [Y4E], the protein stability index is 3.79.

For the variant FQESDTDCEVFRQRFRQFQYREAA [Y4S], the protein stability index was determined as 2.27.

As to FQEFDTDCEVFRQRFRQFQYREAA [Y4F], the protein stability index was determined as 2.5.

Take FQENDTDCEVFRQRFRQFQYREAA [Y4N]: the protein stability index is 2.33.

With FQEMDTDCEVFRQRFRQFQYREAA [Y4M], the protein stability index came out at 2.25.

As for FQEQDTDCEVFRQRFRQFQYREAA [Y4Q], the protein stability index is 2.66.

With FQEKDTDCEVFRQRFRQFQYREAA [Y4K], the protein stability index amounted to 2.85.

Take FQEHDTDCEVFRQRFRQFQYREAA [Y4H]: the protein stability index worked out at 2.33.

On to FQERDTDCEVFRQRFRQFQYREAA [Y4R], for which the protein stability index came to 2.14.

In another series the parent is B2. Described as above. To be noted: c terminus: a fixed tail appended.
In the case of DSCCPAGIFQAMCLLICAEMKQVS [Y21K], the protein stability index is 1.9.

Regarding DSCCPAGIFQAMCLLICAEMRQVS [Y21R], the protein stability index worked out at 2.92.

For DSCCPAGIFQAMCLLICAEMYQWS [V23W], the protein stability index turned out to be 3.16.

On to DSCCPAGIFQAMCLLICAEMYQIS [V23I], for which the protein stability index came out at 4.12.

On to DSCCPAGIFQAMCLLICAEMYQDS [V23D], for which the protein stability index amounted to 1.45.

For the variant DSCCPAGIFQAMCLLICAEMYQKS [V23K], the protein stability index is 2.33.

Regarding DSCCPAGIFQAMCLLICAEMYQPS [V23P], the protein stability index was found to be 2.88.

In the case of DSCCPAGIFQAMCLLICAEMYQCS [V23C], the protein stability index amounted to 3.74.

Turning to DSCCPAGIFQAMCLLICAEMYWVS [Q22W], the protein stability index was 2.54.

As for DSCCPAGIFQAMCLLICAEMYVVS [Q22V], the protein stability index is 3.65.

Regarding DSCCPAGIFQAMCLLICAEMYIVS [Q22I], the protein stability index came to 2.2.

For DSCCPAGIFQAMCLLICAEMYTVS [Q22T], the protein stability index stood at 3.27.

As for DSCCPAGIFQAMCLLICAEMYRVS [Q22R], the protein stability index is 3.1.

For the variant DSCCPAGIFQAMCLLICAEMYPVS [Q22P], the protein stability index came out at 2.12.

Consider DSCCPAGIFQAMCLLICAEMYSVS [Q22S], for which the protein stability index was found to be 2.99.

Take DSCCPAGIFQAMCLLICAEMYDVS [Q22D]: the protein stability index was determined as 2.17.

For DSCCPAGIFQAMCLLICAEMYYVS [Q22Y], the protein stability index worked out at 2.33.

On to DSCCPAGIFQAMCLLICAEMYGVS [Q22G], for which the protein stability index is 3.65.

Regarding DSCCPAGIFQAMCLLICAEMYAVS [Q22A], the protein stability index was determined as 3.15.

With DSCCPAGIFQAMCLLICAEMYQVP [S24P], the protein stability index came out at 4.65.

On to DSCCPAGIFQAMCLLICAEMYQVL [S24L], for which the protein stability index amounted to 3.43.

Take DSCCPAGIFQAMCLLICAEMYQVC [S24C]: the protein stability index stood at 2.39.

For the variant DSCCPAGIFQAMCLLICAEMYQVN [S24N], the protein stability index came to 3.14.

Take DSCCPAGIFQAMCLLICAEMYQVM [S24M]: the protein stability index came to 1.94.

With DSCCPAGIFQAMCLLICAEMYQVY [S24Y], the protein stability index amounted to 3.56.

Turning to DSCCPAGIFQAMCLLICAEMYQVT [S24T], the protein stability index was found to be 3.71.

As for DSCCPAGIFQAMCLLICAEMYQVI [S24I], the protein stability index was determined as 1.96.

With DSCCPAGIFQAMCLLICAEMYQVG [S24G], the protein stability index stood at 2.36.

For the variant DSCCPAGIFQAMCLLICAEMYQVF [S24F], the protein stability index stood at 2.53.

Turning to DSCCPAGIFQAMCLLICAEMYQVA [S24A], the protein stability index stood at 3.22.

As for DSCCPAGIFQAMCLLICAEMYQVQ [S24Q], the protein stability index came out at 3.86.

For the variant DSCCPAGIFQAMCLLICAEMYQVK [S24K], the protein stability index worked out at 3.25.
